Laboratory results from PMC11251181, “Crystal structure of MAGEA4 MHD-RAD18 R6BD reveals a flipped binding mode compared to AlphaFold2 prediction” (The EMBO Journal, 2024).
No end group written: not given here.

Molecular target: T1, MAGEA4 MAGE homology domain (MHD), residues D101-V317 (human, UniProt P43358 101-317)
T1 construct: MAGEA4, human, MAGE homology domain, residues D101-V317; His6 tag removed with TEV protease; also called MAGEA4 MHD; MAGEA4-MHD; source: E. coli BL21 (DE3), purified (Ni-NTA, TEV cleavage, Superdex-75 SEC); not shown: His6, N-terminal, cleaved
T1 sequence (looked up): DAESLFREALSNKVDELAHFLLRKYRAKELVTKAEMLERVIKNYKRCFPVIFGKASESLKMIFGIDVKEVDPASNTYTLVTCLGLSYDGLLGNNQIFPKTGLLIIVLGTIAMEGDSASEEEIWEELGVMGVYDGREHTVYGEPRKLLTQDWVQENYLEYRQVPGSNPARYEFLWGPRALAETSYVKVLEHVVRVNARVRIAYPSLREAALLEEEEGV
Assay: crystal structure; MAGEA4 MHD (10.3 mg/mL) incubated on ice with a 1:2 molar ratio of RAD18 R6BD in 20 mM Tris HCl pH 7.5, 200 mM NaCl, 1 mM TCEP; sitting drop vapor diffusion; 2.58 Å
Settings: both partners purified

B1: RAD18 RAD6-binding domain (R6BD) peptide, residues H339-G366 (peptide, UniProt Q9NS91 339-366, looked up)
peptide: HSKYRKKHKSEFQLLVDQARKGYKKIAG-NH2
notes: also called RAD18 R6BD; source: synthetic peptide (UNC Chapel Hill High-Throughput Peptide Synthesis and Array Facility)
binding result: binds
